Series [1] has as its target T1, Klebsiella sp. 601 MCO (multicopper oxidase) (Klebsiella sp. 601, UniProt B0FMT2).
T1 sequence (B0FMT2 29-536): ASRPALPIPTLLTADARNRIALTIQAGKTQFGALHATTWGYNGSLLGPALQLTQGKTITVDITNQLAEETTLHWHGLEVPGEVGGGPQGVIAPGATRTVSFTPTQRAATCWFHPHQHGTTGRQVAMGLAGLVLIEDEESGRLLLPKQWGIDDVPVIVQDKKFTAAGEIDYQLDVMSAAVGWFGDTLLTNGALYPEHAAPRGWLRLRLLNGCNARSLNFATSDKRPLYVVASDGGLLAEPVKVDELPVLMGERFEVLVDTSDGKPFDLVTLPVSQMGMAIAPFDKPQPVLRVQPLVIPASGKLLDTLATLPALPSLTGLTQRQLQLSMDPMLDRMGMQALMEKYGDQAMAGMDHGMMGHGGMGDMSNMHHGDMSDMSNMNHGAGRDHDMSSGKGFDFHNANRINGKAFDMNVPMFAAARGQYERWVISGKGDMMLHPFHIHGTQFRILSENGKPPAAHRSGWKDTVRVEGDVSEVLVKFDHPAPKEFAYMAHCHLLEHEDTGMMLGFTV
In words: spectrophotometric oxidation assay, Lineweaver-Burk. The format is biochemical. The conditions noted are these: pH 5.0, 50 mM acetate, 37°C, 0.2 mM CuSO4; read-out: Wild-type. The text has this:
(§1) spectrophotometric oxidation assay, Lineweaver-Burk on Klebsiella sp. 601 MCO (multicopper oxidase)

In series [2] the target is Klebsiella sp. 601 MCO (multicopper oxidase) (Klebsiella sp. 601, UniProt B0FMT2, E106F). The conditions noted are these: read-out: E106F; pH 5.0, 50 mM acetate, 37°C, 0.2 mM CuSO4.
Text: as §1

The target in series [3] is Klebsiella sp. 601 MCO (multicopper oxidase) (Klebsiella sp. 601, UniProt B0FMT2, R361G/M362G/L367G/M368G/E369P/M376K/M379P). The conditions noted are these: read-out: α351-380M; pH 5.0, 50 mM acetate, 37°C, 0.2 mM CuSO4.
Text: as §1

Series [4] concerns CCn1c(=NN=c2sc3cc(S(=O)(=O)O)ccc3n2CC)sc2cc(S(=O)(=O)O)ccc21. In words: purified protein. Particulars: pH 3.6, 50 mM acetic acid-sodium acetate, 37°C, 0.2 mM CuSO4.
Substrate in series [5]: CCn1c(=NN=c2sc3cc(S(=O)(=O)O)ccc3n2CC)sc2cc(S(=O)(=O)O)ccc21
The series is described as follows: spectrophotometric oxidation assay, Lineweaver-Burk. Particulars: pH 3.0, 50 mM acetic acid-sodium acetate, 37°C, 0.2 mM CuSO4, pH 3.0. It is filed as biochemical, Klebsiella sp. 601.
Text: as §1

Substrate in series [6]: COc1cc(C=NN=Cc2cc(OC)c(O)c(OC)c2)cc(OC)c1O
Described as above. It is filed as biochemical, Klebsiella sp. 601. Particulars: pH 6.8, 50 mM phosphate, 37°C, 0.2 mM CuSO4, pH 6.8.
Text: as §1

In article PMC3123277, “Engineering Klebsiella sp. 601 multicopper oxidase enhances the catalytic efficiency towards phenolic substrates” (BMC Biochemistry, 2011) one finds Km, kcat/Km and kcat data, which are given here for four molecules.

In general, kcat/Km refers to the second-order rate constant that governs catalysis at low substrate concentration. Broadly, the kcat is the number of substrate molecules converted per active site and unit of time at saturation.

On to `COc1cccc(OC)c1O` [DMP], for which the Km came out at 2850 µM in series [1], 1180 µM in series [2] and 639 ± 17 µM in series [3].

Regarding “Klebsiella sp. 601 MCO (multicopper oxidase) (Klebsiella sp. 601; E106F)”, in series [4], the Km worked out at 159 ± 1.0 µM and the specificity constant (kcat/Km) turned out to be 2.05e+08 M⁻¹ s⁻¹.

On to “Klebsiella sp. 601 MCO (multicopper oxidase) (Klebsiella sp. 601; E369P/L367G/M362G/M368G/M376K/M379P/R361G)”, for which the Km in series [4] is 284 ± 6.2 µM.

B1: Klebsiella sp. 601 MCO (multicopper oxidase) (Klebsiella sp. 601) (protein)
chain: ASRPALPIPTLLTADARNRIALTIQAGKTQFGALHATTWGYNGSLLGPALQLTQGKTITVDITNQLAEETTLHWHGLEVPGEVGGGPQGVIAPGATRTVSFTPTQRAATCWFHPHQHGTTGRQVAMGLAGLVLIEDEESGRLLLPKQWGIDDVPVIVQDKKFTAAGEIDYQLDVMSAAVGWFGDTLLTNGALYPEHAAPRGWLRLRLLNGCNARSLNFATSDKRPLYVVASDGGLLAEPVKVDELPVLMGERFEVLVDTSDGKPFDLVTLPVSQMGMAIAPFDKPQPVLRVQPLVIPASGKLLDTLATLPALPSLTGLTQRQLQLSMDPMLDRMGMQALMEKYGDQAMAGMDHGMMGHGGMGDMSNMHHGDMSDMSNMNHGAGRDHDMSSGKGFDFHNANRINGKAFDMNVPMFAAARGQYERWVISGKGDMMLHPFHIHGTQFRILSENGKPPAAHRSGWKDTVRVEGDVSEVLVKFDHPAPKEFAYMAHCHLLEHEDTGMMLGFTV
As for B1, in series [5], the Km was found to be 539 ± 5.0 µM and the kcat/Km turned out to be 1.27e+08 M⁻¹ s⁻¹. Further, in series [6], the Km came out at 11.67 ± 0.2 µM, the kcat worked out at 10.8 ± 0.1 s⁻¹ and the kcat/Km turned out to be 930000 M⁻¹ s⁻¹.
